The test system of this data set is Escherichia coli TOP10. The data set can be described thus: shrunken log2 fold change of peptide-encoding DNA abundance (4.5 h post-induction vs induction); higher = less antimicrobial activity (less host growth inhibition). As to conditions: time post-induction: 4.5 h; library: site-saturation at positions 5, 18, 19, 20.
In the case of RRIRTRPPRLPRPRPRPKDTPRP, the “shrunken log2 fold change” value is -0.076.

For RRIRFRPPRLPRPRPRPHNTPRP, the “shrunken log2 fold change” value was -0.796.

On to RRIRPRPPRLPRPRPRPIFLPRP, for which the “shrunken log2 fold change” value was determined as 0.124.

As to RRIRLRPPRLPRPRPRPQDEPRP, the “shrunken log2 fold change” value turned out to be 0.119.

RRIRMRPPRLPRPRPRPVRWPRP: the “shrunken log2 fold change” value is 1.38.

Regarding RRIRIRPPRLPRPRPRPCFHPRP, the “shrunken log2 fold change” value was -0.532.

Take RRIRYRPPRLPRPRPRPLLCPRP: the “shrunken log2 fold change” value was -0.287.

Take RRIRMRPPRLPRPRPRPWGTPRP: the “shrunken log2 fold change” value is 0.254.

Regarding RRIRNRPPRLPRPRPRPNPCPRP, the “shrunken log2 fold change” value is -0.1.

Take RRIRLRPPRLPRPRPRPKQMPRP: the “shrunken log2 fold change” value was determined as 0.0542.

Regarding RRIRIRPPRLPRPRPRPLGWPRP, the “shrunken log2 fold change” value came to 0.339.

For the sequence RRIRARPPRLPRPRPRPHDEPRP, the “shrunken log2 fold change” value is -0.00385.

Consider RRIRPRPPRLPRPRPRPNYNPRP, for which the “shrunken log2 fold change” value was -0.676.

As for RRIRFRPPRLPRPRPRPGFCPRP, the “shrunken log2 fold change” value was -0.179.

With RRIRRRPPRLPRPRPRPSADPRP, the “shrunken log2 fold change” value amounted to 0.247.

As to RRIRQRPPRLPRPRPRPTQEPRP, the “shrunken log2 fold change” value came to 0.124.

In the case of RRIRFRPPRLPRPRPRPYAMPRP, the “shrunken log2 fold change” value is -0.686.

On to RRIRSRPPRLPRPRPRPMCKPRP, for which the “shrunken log2 fold change” value amounted to 0.204.

As for RRIRLRPPRLPRPRPRPAWSPRP, the “shrunken log2 fold change” value amounted to 0.103.

RRIRQRPPRLPRPRPRPGAMPRP: the “shrunken log2 fold change” value was 0.155.

Turning to RRIRCRPPRLPRPRPRPDCSPRP, the “shrunken log2 fold change” value came to 0.072.

With RRIRYRPPRLPRPRPRPMWVPRP, the “shrunken log2 fold change” value was -0.0664.

As to RRIRCRPPRLPRPRPRPCDLPRP, the “shrunken log2 fold change” value amounted to 3.04.

Consider RRIRPRPPRLPRPRPRPFHPPRP, for which the “shrunken log2 fold change” value is -0.255.

With RRIRSRPPRLPRPRPRPFCYPRP, the “shrunken log2 fold change” value is -0.528.

RRIRRRPPRLPRPRPRPDAPPRP: the “shrunken log2 fold change” value was 0.888.

Take RRIRLRPPRLPRPRPRPTMMPRP: the “shrunken log2 fold change” value is -0.282.

Consider RRIRQRPPRLPRPRPRPDDQPRP, for which the “shrunken log2 fold change” value was determined as 0.164.

Consider RRIRYRPPRLPRPRPRPLNDPRP, for which the “shrunken log2 fold change” value was -0.0303.

In the case of RRIRIRPPRLPRPRPRPQKWPRP, the “shrunken log2 fold change” value was -0.0915.

Consider RRIRNRPPRLPRPRPRPYGKPRP, for which the “shrunken log2 fold change” value is -0.0718.

On to RRIRYRPPRLPRPRPRPGCNPRP, for which the “shrunken log2 fold change” value is -0.172.

Take RRIRGRPPRLPRPRPRPWVQPRP: the “shrunken log2 fold change” value came to 0.0601.

For RRIRVRPPRLPRPRPRPGCLPRP, the “shrunken log2 fold change” value came to 0.236.

Regarding RRIRHRPPRLPRPRPRPKEKPRP, the “shrunken log2 fold change” value was 0.0444.

In the case of RRIRSRPPRLPRPRPRPKDKPRP, the “shrunken log2 fold change” value was -0.117.

In the case of RRIRGRPPRLPRPRPRPHMRPRP, the “shrunken log2 fold change” value is 0.997.

With RRIRQRPPRLPRPRPRPHDTPRP, the “shrunken log2 fold change” value is -0.152.

For the sequence RRIRFRPPRLPRPRPRPQMMPRP, the “shrunken log2 fold change” value was -0.313.

Turning to RRIRNRPPRLPRPRPRPHIKPRP, the “shrunken log2 fold change” value was -0.595.

On to RRIRARPPRLPRPRPRPSPWPRP, for which the “shrunken log2 fold change” value amounted to 0.348.

In the case of RRIRNRPPRLPRPRPRPKIPPRP, the “shrunken log2 fold change” value is -0.255.

As for RRIRVRPPRLPRPRPRPCYNPRP, the “shrunken log2 fold change” value is -0.11.

Turning to RRIRMRPPRLPRPRPRPFASPRP, the “shrunken log2 fold change” value is 0.0812.

In the case of RRIRRRPPRLPRPRPRPTETPRP, the “shrunken log2 fold change” value stood at 0.137.

With RRIRFRPPRLPRPRPRPMCNPRP, the “shrunken log2 fold change” value is -0.24.

Take RRIRSRPPRLPRPRPRPRVRPRP: the “shrunken log2 fold change” value came to 0.217.

As to RRIRERPPRLPRPRPRPSGYPRP, the “shrunken log2 fold change” value is -0.0887.

Take RRIRTRPPRLPRPRPRPSFTPRP: the “shrunken log2 fold change” value is -0.867.

Consider RRIRERPPRLPRPRPRPMSVPRP, for which the “shrunken log2 fold change” value was -0.158.

Turning to RRIRERPPRLPRPRPRPEFQPRP, the “shrunken log2 fold change” value was -0.0353.

Regarding RRIRSRPPRLPRPRPRPCIVPRP, the “shrunken log2 fold change” value is -1.05.

Consider RRIRGRPPRLPRPRPRPTPFPRP, for which the “shrunken log2 fold change” value is 0.629.

For RRIRYRPPRLPRPRPRPVEFPRP, the “shrunken log2 fold change” value was -1.06.

With RRIRDRPPRLPRPRPRPRCTPRP, the “shrunken log2 fold change” value was -0.054.

As for RRIRHRPPRLPRPRPRPYKTPRP, the “shrunken log2 fold change” value is -0.00968.

On to RRIRNRPPRLPRPRPRPNVKPRP, for which the “shrunken log2 fold change” value is -0.324.

Consider RRIRRRPPRLPRPRPRPWSIPRP, for which the “shrunken log2 fold change” value amounted to 0.0651.

For RRIRKRPPRLPRPRPRPHFVPRP, the “shrunken log2 fold change” value turned out to be 0.347.

RRIRSRPPRLPRPRPRPLMSPRP: the “shrunken log2 fold change” value was -0.0126.

For RRIRNRPPRLPRPRPRPYPSPRP, the “shrunken log2 fold change” value was found to be 0.0309.

Regarding RRIRCRPPRLPRPRPRPVHFPRP, the “shrunken log2 fold change” value amounted to 0.128.

On to RRIRVRPPRLPRPRPRPYTLPRP, for which the “shrunken log2 fold change” value is -0.666.

On to RRIRFRPPRLPRPRPRPAYSPRP, for which the “shrunken log2 fold change” value is 0.00204.

As to RRIRFRPPRLPRPRPRPVWVPRP, the “shrunken log2 fold change” value came to 0.0313.

RRIRDRPPRLPRPRPRPCHPPRP: the “shrunken log2 fold change” value was -0.0697.

Consider RRIRDRPPRLPRPRPRPPSGPRP, for which the “shrunken log2 fold change” value stood at 0.364.

With RRIRWRPPRLPRPRPRPHVLPRP, the “shrunken log2 fold change” value was -0.096.

Turning to RRIRTRPPRLPRPRPRPMYNPRP, the “shrunken log2 fold change” value was -0.325.

Take RRIRWRPPRLPRPRPRPNPEPRP: the “shrunken log2 fold change” value is -0.0123.

Take RRIRQRPPRLPRPRPRPWQWPRP: the “shrunken log2 fold change” value was -0.133.

Turning to RRIRPRPPRLPRPRPRPNMNPRP, the “shrunken log2 fold change” value is -0.584.

Consider RRIRYRPPRLPRPRPRPGIRPRP, for which the “shrunken log2 fold change” value worked out at 0.0108.

RRIRWRPPRLPRPRPRPMVGPRP: the “shrunken log2 fold change” value was found to be 0.171.

On to RRIRMRPPRLPRPRPRPYRNPRP, for which the “shrunken log2 fold change” value is -0.18.

In the case of RRIRGRPPRLPRPRPRPKKYPRP, the “shrunken log2 fold change” value turned out to be 0.119.

RRIRARPPRLPRPRPRPSDWPRP: the “shrunken log2 fold change” value worked out at 0.402.

As for RRIRYRPPRLPRPRPRPVIKPRP, the “shrunken log2 fold change” value is -0.585.

RRIRARPPRLPRPRPRPNCVPRP: the “shrunken log2 fold change” value was 0.23.

For RRIRMRPPRLPRPRPRPETRPRP, the “shrunken log2 fold change” value turned out to be 0.925.

Regarding RRIRTRPPRLPRPRPRPTNWPRP, the “shrunken log2 fold change” value was determined as 0.155.

With RRIRFRPPRLPRPRPRPPVWPRP, the “shrunken log2 fold change” value stood at 0.622.

Turning to RRIRARPPRLPRPRPRPRTGPRP, the “shrunken log2 fold change” value was 0.387.

In the case of RRIRYRPPRLPRPRPRPCVHPRP, the “shrunken log2 fold change” value is -0.0274.

Consider RRIRCRPPRLPRPRPRPKAQPRP, for which the “shrunken log2 fold change” value came out at 0.262.

Consider RRIRLRPPRLPRPRPRPMGRPRP, for which the “shrunken log2 fold change” value worked out at 0.0605.

As to RRIRDRPPRLPRPRPRPQSAPRP, the “shrunken log2 fold change” value stood at 0.138.

RRIRARPPRLPRPRPRPHIIPRP: the “shrunken log2 fold change” value was -0.0334.

Take RRIRQRPPRLPRPRPRPSEIPRP: the “shrunken log2 fold change” value is -0.0356.

For RRIRMRPPRLPRPRPRPAGIPRP, the “shrunken log2 fold change” value is -0.000742.

With RRIRDRPPRLPRPRPRPGFPPRP, the “shrunken log2 fold change” value came out at 0.0346.

With RRIRPRPPRLPRPRPRPCQGPRP, the “shrunken log2 fold change” value turned out to be 0.056.

In the case of RRIRNRPPRLPRPRPRPQMDPRP, the “shrunken log2 fold change” value is 0.0304.

On to RRIRDRPPRLPRPRPRPGMQPRP, for which the “shrunken log2 fold change” value came out at 0.165.

Consider RRIRFRPPRLPRPRPRPNPRPRP, for which the “shrunken log2 fold change” value stood at 0.427.

As to RRIRVRPPRLPRPRPRPNVTPRP, the “shrunken log2 fold change” value is -0.554.

Turning to RRIRVRPPRLPRPRPRPHKEPRP, the “shrunken log2 fold change” value stood at 0.0216.

Turning to RRIRPRPPRLPRPRPRPFMIPRP, the “shrunken log2 fold change” value is 0.471.

Consider RRIRMRPPRLPRPRPRPPVIPRP, for which the “shrunken log2 fold change” value was found to be 0.312.

With RRIRARPPRLPRPRPRPMCAPRP, the “shrunken log2 fold change” value came to 0.813.

Turning to RRIRPRPPRLPRPRPRPHLFPRP, the “shrunken log2 fold change” value is -0.0473.

For the sequence RRIRRRPPRLPRPRPRPQIFPRP, the “shrunken log2 fold change” value is -0.0198.

RRIRGRPPRLPRPRPRPAGDPRP: the “shrunken log2 fold change” value was determined as 1.11.

Consider RRIRWRPPRLPRPRPRPKLKPRP, for which the “shrunken log2 fold change” value is 0.507.

Turning to RRIRGRPPRLPRPRPRPELHPRP, the “shrunken log2 fold change” value turned out to be 1.04.

For RRIRHRPPRLPRPRPRPSFNPRP, the “shrunken log2 fold change” value was -0.583.

As for RRIRCRPPRLPRPRPRPIPIPRP, the “shrunken log2 fold change” value was -0.0907.

Turning to RRIRTRPPRLPRPRPRPVFGPRP, the “shrunken log2 fold change” value was found to be 0.227.

Regarding RRIRCRPPRLPRPRPRPYLYPRP, the “shrunken log2 fold change” value was -1.01.

RRIRIRPPRLPRPRPRPPTIPRP: the “shrunken log2 fold change” value is -0.904.

For RRIRQRPPRLPRPRPRPSDGPRP, the “shrunken log2 fold change” value was -0.0586.

Turning to RRIRTRPPRLPRPRPRPWHNPRP, the “shrunken log2 fold change” value was -0.0242.

RRIRQRPPRLPRPRPRPCTIPRP: the “shrunken log2 fold change” value was -0.00957.

Take RRIRWRPPRLPRPRPRPTGDPRP: the “shrunken log2 fold change” value turned out to be 0.241.

With RRIRMRPPRLPRPRPRPWSAPRP, the “shrunken log2 fold change” value was found to be 0.149.

As to RRIRYRPPRLPRPRPRPPSIPRP, the “shrunken log2 fold change” value is -0.285.

Regarding RRIRVRPPRLPRPRPRPFGPPRP, the “shrunken log2 fold change” value is -0.543.

On to RRIRPRPPRLPRPRPRPAGPPRP, for which the “shrunken log2 fold change” value worked out at 0.314.

As for RRIRIRPPRLPRPRPRPLCRPRP, the “shrunken log2 fold change” value was -0.289.

Turning to RRIRGRPPRLPRPRPRPKPKPRP, the “shrunken log2 fold change” value came out at 0.601.

In the case of RRIRHRPPRLPRPRPRPCMVPRP, the “shrunken log2 fold change” value is -0.342.

With RRIRYRPPRLPRPRPRPCWDPRP, the “shrunken log2 fold change” value is -0.0738.

As for RRIRSRPPRLPRPRPRPLGFPRP, the “shrunken log2 fold change” value is 0.0335.

Take RRIRCRPPRLPRPRPRPIKFPRP: the “shrunken log2 fold change” value is -0.159.

Take RRIRNRPPRLPRPRPRPMPIPRP: the “shrunken log2 fold change” value is -0.0173.
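Also: peptides expressed intracellularly from a pBAD plasmid library in pooled LB shake-flask culture, induced with 0.3% L-arabinose, DNA abundance read by NGS, three biological replicates, DESeq2 with apeglm shrinkage.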
